Assay results: patent publication US20260234223A1 (LEYDEN LABORATORIES B V, published 2026)

Biological target: SARS-CoV-2 Omicron BA.4 Spike (on pseudovirions) (SARS-CoV-2 Omicron BA.4)
Assay: cell-based or functional assay

B1: COV30-14 (antibody, V domains shown)
VH: QVQLVQSGAEVKKPGASVKVSCQTSGYTFTSYYMHWVRQAPGQGLEWMGLITPSGDDTYYAQRFQGRVTMTRDTSTSPTYMELSSLTSEDTAVYYCAKMSRAGGFDVWGQGTLVTVSS
VL: EVVLTQSPGTLSLSPGERATLSCRASQSITGRYLAWYQQKPGQAPRLLMYGESSRVTGIPDRFSGGGSGTDFTLTISRLEPEDFAVYYCQHFASSPPTYTFGQGTKLEIR
notes: also called the antibody according to the invention; the antibody according to invention
- Pseudovirion neutralization IC50 (geometric mean): 7.6 mg/L
